We go through one substance from patent US20260176346A1.

Usually Kd stands for the constant that tells how readily two partners part at equilibrium. Broadly, the koff is a measure of how fast the partners let go of each other. In general, kon refers to a measure of how fast the partners come together.

In the assay the target is recombinant human VEGF (R&D Systems, 293-VE-010) (human) (UniProt P15692). The assay can be described thus: Octet HTX biosensor (BLI); positive control antibody at 10 ug/mL in 1x kinetics buffer; recombinant human VEGF in 1:2 series, 200 nM to 3.125 nM. On the technique in general: Biolayer interferometry detects binding as a change in optical thickness at a sensor tip.
Chain of UniProt P15692 (P15692 other isoform, or with tags, fused parts or gaps limits assumed): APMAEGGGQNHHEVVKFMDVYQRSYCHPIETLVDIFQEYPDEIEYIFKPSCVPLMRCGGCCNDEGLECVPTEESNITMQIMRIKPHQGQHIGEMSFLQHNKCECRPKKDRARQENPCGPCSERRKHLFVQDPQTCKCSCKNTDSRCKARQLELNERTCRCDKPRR

As to “mouse anti-human VEGF monoclonal antibody (anti-hVEGF MmAb; R&D Systems, MAB293-100)”, the dissociation constant Kd was found to be 0.229 nM, the koff was 7.77e-05 s⁻¹ and the kon stood at 340000 M⁻¹ s⁻¹.
